Columns and labels:
[1] = target: T1, GDP-tubulin (biotinylated α/β-tubulin heterodimer with GDP-bound β-tubulin) (UniProt Q71U36 1-451; Q9H4B7 1-451, biotinylated tubulin (chain and residues not stated) | biotinylated tubulin (chain and residues not stated)); assay: pull-down; supernatant depletion at equilibrium, same assay as for GTP-tubulin but with bead-bound GDP-tubulin; BuGZ construct (or mEGFP control) in solution; fit with Equation S2 for wild-type BuGZ; conditions: both partners purified
[2] = target: GTP-tubulin (biotinylated α/β-tubulin heterodimer with GTP-bound β-tubulin) (UniProt Q71U36 1-451; Q9H4B7 1-451, biotinylated tubulin (chain and residues not stated) | biotinylated tubulin (chain and residues not stated)); assay: pull-down; supernatant depletion at equilibrium; varying concentrations of biotinylated GTP-tubulin on streptavidin-coated magnetic beads; BuGZ construct (or mEGFP control) in solution, BuGZ 1.19 μM; 4 °C; nocodazole present; depletion from the supernatant measured by immunoblotting; conditions: both partners purified
[3] = target: taxol-stabilized microtubules (polymerized with a 1:10 mixture of biotin-labeled: unlabeled GTP-tubulin) (UniProt Q71U36 1-451; Q9H4B7 1-451, biotin on part of the tubulin (1:10 biotin-labeled: unlabeled; chain and residues not stated) | biotin on part of the tubulin (1:10 biotin-labeled: unlabeled; chain and residues not stated)); assay: pull-down; supernatant depletion at equilibrium; varying concentrations of biotin-containing taxol-stabilized microtubules on streptavidin-coated magnetic beads; BuGZ 1.19 μM; 4 °C; BuGZ left in the supernatant measured by quantitative immunoblotting; fit with a rectangular hyperbola (Equation S1); conditions: both partners purified
[4] = target: T1, GDP-tubulin (biotinylated α/β-tubulin …); assay: cell-based or functional assay

Kd [1] | Kd [2] | Kd [3] | GTP α-32P incorporation into 100 μM GDP-tubulin at equilibrium (1:1 GTP:GDP, 1.19 μM BuGZ, room temperature), increase relative to the control condition [4] | Binder
1470 nM | 7140 nM |  |  | BuGZ-NTD (domain or fragment, BuGZ (ZNF207), Xenopus laevis, UniProt Q7ZXV8; the N-terminal 92 amino acids, which contain the two zinc fingers; The discussion says the zinc finger domain of BuGZ can be produced in bacteria; also called BuGZ's N-terminal domain; N-terminal 92 amino acids of BuGZ; source: purified) not shown
45.3 nM | 477 nM | 9450 nM | 60.1% | Xenopus laevis BuGZ (Bub3-interacting and GLEBS motif-containing protein ZNF207), full-length wild type (natural protein, BuGZ (ZNF207), Xenopus laevis, UniProt Q7ZXV8; full-length wild type; also called wild-type BuGZ; full-length BuGZ; source: purified) not shown

Source: paper PMC12302650, “A tubulin-binding protein that preferentially binds to GDP-tubulin and promotes GTP exchange” (The Journal of Biological Chemistry, 2025)
